In the DeepSol protein solubility set:

Assay: soluble on expression in E. coli; label from the status in PepcDB or PDB records

Row | Sequence | soluble on expression in E. coli
1 | MTTAIGKKTTKLEPFKMERGVKYRDAAKTSVIQVRNIDPDQELLKKPEWMKIKLPTNSAKIDSIKYGMRRHGLHSVCEEASCPNLHECFNHGTATFMIMGAICTRRCPFCDVAHGKPLPLDPYEPRKVAETVQDMKLKYVVITSVDRDDLADRGAAHFAATVREIKALNPECKVEILVPDFRGRVEQAVAILKQNPPDVFNHNLENVPRLYREIRPGADYKWSLELLKIFKQEFPNIPTKSGLMVGLGETNEEILAVMQDLRDHGVTMLTVGQYLQPSRHHLRVERYVPPAEFEMFRSEAEKMGFEHAACGPFVRSSYHADLQAKGELVK | not soluble
2 | MGHHHHHHSHMLSVHTDMASVTKAMAAPESGLEVRDRMWLKITIPNAFLGSDVVDWLYHHVEGFPERREARKYASGLLKAGLIRHTVNKITFSEQCYYVFGDLSGGCESYLVNLSLNDNDGSSGASDQDTLAPLPGATPWPLLPTF | soluble
3 | MGSDKIHHHHHHMSQDDHSRDSAGLTYVYPVVSRRAGGVSIGINLNPNNACNWRCIYCQVPDLKRGTAPVIDLVRLEQELRDFLHELVYGNFMQEKVPPETRVIKDIALSGNGEPTSAREFEQIIEIIGRVKADFPLPEELKLVLITNGSLINRMYVQKGLHLMAGLNGEVWFKLDSVTQTGRLRINNTRASLQRMRDNLQTAASLCPTWLQTCVFKLKGVHPDTHETDAYIGFIRTLLQEGTQIRGVLLYTLARPALQPEAPDLSKADPDWIKTFADKIRALGIPVRTAF | not soluble
4 | MQEISFRDDILPLKDKLFRLALRITFDRAEAEDVVQDTMIRVWNKREEWTQFGSIEAYCLTVAKNLAIDRSQKKEAQNVELTPEMEEESEISGPYDQ | not soluble
5 | GMIPFPESRLAAQMSFVVEIDKLKTILRQTLLTDSSRRENDAEHSWHIATMAFLLAEYADEAVQIGRVARMLLIHDIVEIDAGDTFIHDEAGNEDKEERERKAAARLFGLLPPDQAAEYSALWQEYEARETADARFADALDRLQPLLHNFETEGGTWKPHGVTRAKVDKLLPRIEAGSKRLGAYARALVDEAVRRGYLAP | soluble
6 | MKNTGTSVKFGESSTQALIRAAYRQVFGRDLYEGQRLSVAEIQLENGDISVREFIKRLAKSELFLKLYWAPHYVCKAIEYMHRRLLGRPTYGRQEMNQYFDIASKQGFYAVVEAMIDSKEYSDAFGEDTVPYERYLTPGGLEHHHHHH | not soluble
7 | PYIEIFEQPRQRGMRFRYKCEGRSAGSIPGEHSTDNNKTFPSIQILNYFGKVKIRTTLVTKNEPYKPHPHDLVGKDCRDGYYEAEFGPERRVLSFQNLGIQCVKKKDLKESISLRISKKINPFNVPEEQLHNIDEYDLNVVRLCFQAFLPDEHGNYTLALPPLISNPIYDNRAPNTAELRICRVNKNCGSVKGGDEIFILCDKVQKDDIEVRFVLDNWEAKGSFSQADVHRQVAIVFRTPPFLRDITEPITVKMQLRRPSDQEVSEPMDFRYLPD | soluble
8 | MSNIFLSLEPKILWSHFYRLTQIPRPSGHEEAVRTYVADVAKRCGLEWLVDEAGNIIVRKPASAGMERRRGVILQAHLDMVPQKNAGTAHDFTKDPIDAVIDGEWVHARGTTLGADNGIGVAAALAVLESDDLRHGPLEALFTVNEEAGMTGALGLKPGVLRGDILLNLDSEDEGELFIGCAGGLDGTMRFDYSCEPLPPGYSGIEIRVSGLRGGHSGMDIDLGRGNANKIMNRLLQMGREHHGLLLASIDGGSLRNAIPRESVALVAVPSAQKVAFLDELHSLASAIGLELNGVDPELRVEAADAALPVGMIDDTVAQRLFDAVAACPNGVHRMSEAMAGLVETSNNLARVHSDGRAVSVECLLRSASVEGMRELADAVAGIAERAGTVAAFENGYPGWKPNPASPILKCMVKVYRDRFGKTPEIRAVHAGLECGIIGANNPQLDMISFGPTIRHPHSPDEKVECSSVLKFWELLVATLEEVPEPLEHHHHHH | not soluble
9 | MKLSRISAINWNKIQDDKDLEVWNRLTSNFWLPEKVPLSNDIPAWQTLSAAEQQLTIRVFTGLTLLDTIQNIAGAPSLMADAITPHEEAVLSNISFMEAVHARSYSSIFSTLCQTKEVDAAYAWSEENPPLQRKAQIILAHYVSDEPLKKKIASVFLESFLFYSGFWLPMYFSSRGKLTNTADLIRLIIRDEAVHGYYIGYKYQIALQKLSAIEREELKLFALDLLMELYDNEIRYTEALYAETGWVNDVKAFLCYNANKALMNLGYEALFPPEMADVNPAILAALSPNADENHDFFSGSGSSYVMGKTVETEDEDWNF | soluble
10 | GSHMKISARNVFKGTVSALKEGAVNAEVDILLGGGDKLAAVVTLESARSLQLAAGKEVVAVVKAPWVLLMTDSSGYRLSARNILTGTVKTIETGAVNAEVTLALQGGTEITSMVTKEAVAELGLKPGASASAVIKASNVILGVPA | soluble
11 | MNYPLIFAENQRIETERLILRPVTLADAEDMYEYASDEETVRYVFLKNQTIAETRQNIAKFFMGEPLGKYGIEVKETGKMIGTIDLRVNETNNIGELGYVLNRTFWGNGYMPEAATALVELGFAKMKLMRIFALHDQDNPASGRVMEKIGFTYEGTLPNARISKGKIVTDVYRGMTLETWQNRQK | soluble
12 | MAQLYYKYGTMNSGKTIEILKVAHNYEEQGKPVVIMTSALDTRDGFGIVSSRIGMRREAIPISNDMDIFTFIAQLEEKPYCVLIDESQFLSKQNVYDLARVVDELNVPVMAFGLKNDFQNNLFEGSKHLLLLADKIDEIKTICQYCSKKATMVLRTENGKPVYEGDQIQIGGNETYIPVCRKHYFNPDI | not soluble
13 | MTFEAITREWYQRRYDRWSESYRLEMMSTFESDVFPYIGYRPIKEIKPLELMAVLSKLEKRGATEKMRKVRQRCGEVWKYAIITGRAEYNPAPDLASAFAPHKREHLEHHHHHH | not soluble
14 | MAHHHHHHMQLPRKRGTQRRRAHRRNWRDCTSLCTMRGGAMRWNFRTAWSERKQGTGMGVHEGKPEQSWTYKKADDAIKKNDAVQQFGAAPPVLMVLASDKGWPYSWNTIQDLPKDFFVNCEVDRAWQIVKGDLTAWFSPHGGTDFTPKRRVLIGTPGIGKSVAAGSYLLY | not soluble
15 | GGTSNEVAQFLSKENQVIVRMRGLPFTATAEEVVAFFGQHCPITGGKEGILFVTYPDGRPTGDAFVLFACEEYAQNALRKHKDLLGKRYIELFRSTAAEVQQVLNRFSSA | soluble
16 | METIFEDEETMMAAEQSSSGISANSNSNCSASKTEKASKKPKNAIPKVKNSGIHKKPAKSDFDEFLSSMKSRLSQATSMKSNKEQLKMLEETQKLIFDRITKSADARDMEHLEKQMNKL | soluble
17 | MTDTRKFKATDLFSFNNINLDPLTETFNISFYLSYLNKWPSLCVVQESDLSDPTLMGYIMGKSEGTGKEWHTHVTAITVAPNSRRLGLARTMMDYLETVGNSENAFFVDLFVRASNALAIDFYKGLGYSVYRRVIGYYSNPHGKDEDSFDMRKPLSRDVNRESIRENGENFKCSPADVSF | soluble
18 | MSLKDGKLGLPIPEAVKIIPELNNYVINGKLDFSNRQARILYNKAIAKALFGLDIEYHPKGLVTTPISRYIFLKTFLRGGEVALEIGTGHTAMMALMAEKFFNCKVTATEVDEEFFEYARRNIERNNSNVRLVKSNGGIIKGVVEGTFDVIFSAPPYYDKPLGRVLTEREAIGGGKYGEEFSVKLLEEAFDHLNPGGKVALYLPDKEKLLNVIKERGIKLGYSVKDIKFKVGTRWRHSLIFFKGISEGHHHHHH | soluble
19 | MRVLATAADLEKLINENKGRLIVVDFFAQWCGPCRNIAPKVEALAKEIPEVEFAKVDVDQNEEAAAKYSVTAMPTFVFIKDGKEVDRFSGANETKLRETITRHK | soluble
20 | MGSDKIHHHHHHGDDDDSSSSGNWQDLSKTYEGKSVNLVMGEVTVPVDGKSVVIAASSAEKASVTLNNIIPENKSVAIDAALKEADGTYTFTGESTVGDCVVSVNGTVKGGVASVVYTRKLTSSIVGNWSLKVGVEAIYANIVTGNSTIDDLVRMIKPAISNLIWGKVSAVNVNLPEDGIFDVSWRPIGASEDKGIGEITKMASIQYCVVDGKFMVAVDKNYVTVLTTLLQQAAGDKLEAAGISIDEIMKLLVDLGGYYGLPLNMKVDGSEATFYADKDLIVPVLTMIAPILKPMVPENYQQMVDMVLQLLPNAKTLEFGLNFTK | not soluble
21 | GKDFSYWVKMTTGYSDNKIKEAGFQATPGFDDIVRGERSDRGVWGYECIGMFRTYQDIEEYFAVNKITSYLGNTKDNIHPGMLIYRDVRGQRNADGTYGEADGVIDQNDYVKISN | not soluble
